Measured values reported in patent US11732029B2, “Methods and compositions for the treatment of wounds” (The University of Chicago, priority 2017, dated 2023).
Entries after “also recorded” stand apart in the source; their conditions may differ.

Tests used:
VEGF-A121 [1] = biological target: T1, VEGF-A121 (Homo sapiens, UniProt P15692); assay: Surface plasmon resonance, vWF against GF; assay type: binding; design: All growth factors (GFs) and chemokines were purchased in their mature forms; purchased PeproTech; host or cells: Escherichia coli; settings: vWF immobilized, VEGF-A121 50-800 nM
T1 sequence (P15692 27-147 isoform P15692-9 limits assumed): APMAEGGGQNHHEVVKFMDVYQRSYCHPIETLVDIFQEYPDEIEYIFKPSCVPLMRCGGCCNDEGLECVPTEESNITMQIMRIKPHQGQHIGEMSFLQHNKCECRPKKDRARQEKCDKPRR
Protocol: SPR assays were performed as described previously2. In brief, measurements were made with a Biacore X100 SPR system or Biacore 3000 SPR system (GE Healthcare). Plasma-derived vWF was immobilized via amine coupling on a C1 chip (GE Healthcare) for 2000 resonance units (RU) according to the manufacturer's instructions. Recombinant human VEGF-A165, VEGF-A121, or PDGF-BB was flowed at increasing concentrations in the running buffer at 30 μL/min. The sensor chip was regenerated with glycine at pH 2 for every cycle. Specific binding of GFs to vWF was calculated automatically using the response to a non-functionalized channel as a reference. Binding curves were fitted using BIAevalution software (GE Healthcare). vWF-VEGF-A165 binding results were fitted with Langmuir binding kinetics (1:1 binding with drifting baseline Rmax local). vWF-PDGF-BB binding results were fitted with heterogeneous ligand-parallel reaction.

VEGF-A121 [2] = biological target: T1, VEGF-A121; assay: vWF binding to recombinant VEGF-A isoforms (ELISA); design: All growth factors (GFs) and chemokines were purchased in their mature forms; purchased PeproTech; host or cells: Escherichia coli; settings: plate coated with 50 nM vWF domains, 1 μg/mL VEGF-A, vs BSA
Protocol: ELISA was performed as previously reported1. In brief, ELISA plates (med binding: Greiner Bio-One) were coated with 50 nM BSA (GE Healthcare), pro-peptide containing recombinant vWF (Sino Biological), plasma-derived vWF (EMD Millipore), recombinant human vWF A1 domain (U-Protein Express), recombinant human vWF A2 domain (R & D systems), recombinant human vWF A3 domain (U-Protein Express), vWF A1 HBD peptide or scrambled/mutated HBD peptide (all peptides were synthesized by Genscript). After blocking with 2% BSA solution containing PBS-T, 1 μg/mL of recombinant human VEGF-A121 (PeproTech), recombinant human VEGF-A145 (R & D Systems), or recombinant human VEGF-A165 (PeproTech) was added. Bound VEGF-A was detected with 1 μg/mL of mouse anti-human VEGF-A antibody (clone: 26503, R & D systems). After 60 min of incubation, horseradish peroxidase (HRP) conjugated goat anti-mouse antibody (1:2000 dilution, Dako) was added and incubated for another 60 min. Color development and the absorbance measurement were done as described above.

[3] = test system: full-thickness back-skin wounds in db/db mice; assay: Mouse diabetic skin wound healing model, histomorphometric analysis; assay type: in vivo; settings: fibrin matrix, 100 ng VEGF-A165 and 50 ng PDGF-BB, after 7 d, vs fibrin alone
Protocol: Histomorphometric analyses were performed as previously reported. Briefly, an area of 8 mm in diameter, which includes the complete epithelial margins, was excised. Wounds were fixed with 2% PFA and cut in the center into two and embedded into paraffin. Histological analysis was performed on 5 μm serial sections. Images were captured with an EVOS FL Auto microscope (Life Technologies). The extent of re-epithelialization and granulation tissue formation were measured by histomorphometric analysis of tissue sections (H&E staining) using ImageJ software. For analysis of re-epithelialization, the distance that the epithelium had traveled across the wound was measured; the muscle edges of the panniculus carnosus were used as an indicator for the initial wound edges, and re-epithelialization was calculated as the percentage of the distance of edges of the panniculus carnosus muscle. For granulation tissue quantification, the area covered by a highly cellular tissue was determined.
Diabetic skin wound healing assays were performed in the mouse as previously reported. Briefly, C57BLKS/J-m/Lepr db (db/db) male mice were 10 to 12 wk old at the start of the experiments. Their backs were shaved and four full-thickness punch biopsy wounds (6 mm in diameter) were created in each mouse. […]

PlGF-1 = biological target: T2, PlGF-1 (Homo sapiens, UniProt P49763); assay: Recombinant GF binding to the vWF recombinant protein and A1 HBD peptide (ELISA); design: All growth factors (GFs) and chemokines were purchased in their mature forms; purchased PeproTech; host or cells: Escherichia coli; settings: plate coated with vWF protein, A1 domain or HBD peptide, 1 μg/mL GF
T2 sequence (P49763 19-149 isoform P49763-2 limits assumed): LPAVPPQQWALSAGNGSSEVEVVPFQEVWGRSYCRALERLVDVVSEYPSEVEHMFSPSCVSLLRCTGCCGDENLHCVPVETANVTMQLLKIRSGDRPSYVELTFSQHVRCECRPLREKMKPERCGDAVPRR
Protocol: ELISA tests were performed as described above. In brief, ELISA plates were coated with 1 μg/mL of FL-vWF (WT or R1341Q), 1 μg/mL of vWF A1 recombinant protein (U-Protein Express) or 1 μg/mL of vWF A1 HBD peptide (sequence […], (SEQ ID NO:50) chemically synthesized by Genscript) at 37° C. overnight. After blocking with 2% BSA solution containing PBS-T, 1 μg/mL of the recombinant human proteins VEGF-A121, VEGF-A165, PlGF-1, PlGF-2, PDGF-BB, FGF-2, CXCL-12α and CXCL-12γ were added. 1 μg/mL of BSA served as non-binding protein control. Bound GF or chemokine was detected with biotinylated antibodies for human VEGF-A, PlGF, PDGF-BB, FGF-2, or CXCL-12 (R & D Systems). The antibodies were detected by streptavidin-HRP (R & D Systems). Color development and the absorbance measurement were done as described above.

Substance	binding to VEGF-A121 by SPR (VEGF-A121 [1])	binding to VEGF-A121 (VEGF-A121 [2])	granulation tissue [3]	wound closure [3]	binding to PlGF-1 (PlGF-1)
vWF: human plasma-derived von Willebrand factor (EMD Millipore)	did not show significant binding; also recorded: No binding was observed	did not			
YIGLKDRKRPSELRRIASQVKYAC [vWF HBD]			did not differ	did not differ	neither VEGF-A121 nor PlGF-1 were able to bind
